Experimental data as given in patent US20240270874A1 (JIANGSU HENGRUI PHARMACEUTICALS, published 2024).

T1: human KLB on CHOK1-hKLB cells (human, UniProt Q86Z14 1-1044)
T1 construct: whole, on cells; also called human KLB antigen; β-Klotho
T1 sequence (looked up): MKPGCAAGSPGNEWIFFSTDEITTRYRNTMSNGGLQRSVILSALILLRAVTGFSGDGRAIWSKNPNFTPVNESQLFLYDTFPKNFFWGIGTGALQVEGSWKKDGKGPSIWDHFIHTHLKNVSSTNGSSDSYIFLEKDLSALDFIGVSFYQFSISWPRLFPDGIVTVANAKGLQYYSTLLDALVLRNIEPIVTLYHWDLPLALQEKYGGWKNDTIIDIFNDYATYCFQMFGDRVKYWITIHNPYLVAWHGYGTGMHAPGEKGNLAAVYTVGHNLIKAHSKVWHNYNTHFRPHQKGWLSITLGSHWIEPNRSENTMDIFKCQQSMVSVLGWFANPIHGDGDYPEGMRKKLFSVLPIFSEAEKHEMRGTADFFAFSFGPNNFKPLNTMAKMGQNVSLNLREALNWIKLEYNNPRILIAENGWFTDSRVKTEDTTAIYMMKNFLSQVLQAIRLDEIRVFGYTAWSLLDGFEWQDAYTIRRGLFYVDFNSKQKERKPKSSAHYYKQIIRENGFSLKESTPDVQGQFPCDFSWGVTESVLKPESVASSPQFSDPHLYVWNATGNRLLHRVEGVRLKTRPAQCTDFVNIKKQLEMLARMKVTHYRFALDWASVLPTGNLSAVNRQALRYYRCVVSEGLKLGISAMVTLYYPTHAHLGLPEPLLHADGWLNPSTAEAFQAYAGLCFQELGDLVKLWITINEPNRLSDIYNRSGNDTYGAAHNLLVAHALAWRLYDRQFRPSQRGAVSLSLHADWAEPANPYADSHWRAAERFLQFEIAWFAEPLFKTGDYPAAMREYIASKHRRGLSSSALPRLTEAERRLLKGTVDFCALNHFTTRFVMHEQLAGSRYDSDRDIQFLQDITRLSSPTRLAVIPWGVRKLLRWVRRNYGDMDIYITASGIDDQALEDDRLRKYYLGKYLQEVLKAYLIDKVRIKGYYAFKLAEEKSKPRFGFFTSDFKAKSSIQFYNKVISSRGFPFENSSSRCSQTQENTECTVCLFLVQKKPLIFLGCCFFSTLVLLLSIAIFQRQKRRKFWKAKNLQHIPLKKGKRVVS

T2: hKLB (R&D, Cat. # 5889-KB) (human, UniProt Q86Z14 53-997, limits assumed)
T2 construct: bought soluble protein; also called KLB protein; human KLB
T2 sequence (looked up): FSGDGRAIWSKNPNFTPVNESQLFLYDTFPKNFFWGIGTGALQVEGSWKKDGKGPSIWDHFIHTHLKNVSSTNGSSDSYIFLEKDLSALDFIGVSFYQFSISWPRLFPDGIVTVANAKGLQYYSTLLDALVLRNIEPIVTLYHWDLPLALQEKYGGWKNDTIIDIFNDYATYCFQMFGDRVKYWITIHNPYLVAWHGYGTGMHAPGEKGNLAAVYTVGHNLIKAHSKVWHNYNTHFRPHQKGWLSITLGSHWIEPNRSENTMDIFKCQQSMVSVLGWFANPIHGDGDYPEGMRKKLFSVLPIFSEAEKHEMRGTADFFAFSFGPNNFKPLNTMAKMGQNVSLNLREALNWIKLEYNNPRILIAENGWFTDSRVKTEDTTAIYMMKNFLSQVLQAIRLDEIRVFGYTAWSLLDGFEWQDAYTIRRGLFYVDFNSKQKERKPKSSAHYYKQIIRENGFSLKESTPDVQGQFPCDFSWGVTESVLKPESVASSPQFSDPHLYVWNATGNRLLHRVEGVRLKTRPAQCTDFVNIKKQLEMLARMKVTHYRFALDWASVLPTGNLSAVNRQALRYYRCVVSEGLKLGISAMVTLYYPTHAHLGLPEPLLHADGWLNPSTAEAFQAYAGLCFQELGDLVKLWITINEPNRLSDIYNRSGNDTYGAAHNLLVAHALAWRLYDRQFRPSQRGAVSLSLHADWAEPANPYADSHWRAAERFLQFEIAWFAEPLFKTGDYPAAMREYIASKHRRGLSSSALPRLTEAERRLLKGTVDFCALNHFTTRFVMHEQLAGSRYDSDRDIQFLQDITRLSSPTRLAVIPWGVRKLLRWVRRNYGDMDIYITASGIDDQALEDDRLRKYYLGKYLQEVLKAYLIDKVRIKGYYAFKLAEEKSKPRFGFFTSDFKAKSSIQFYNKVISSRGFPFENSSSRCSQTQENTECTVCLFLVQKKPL

B1: hAb99-13 (antibody, human IgG1, kappa, L234A L235A, V domains shown)
VH: EVQLVQSGAEVKKPGASVKVSCKASGYTFTNYGINWVRQAPGQRLEWMGYIYIGNVDIEYNAKFKGRVTITSDTSASTAYMELSSLRSEDTAVYYCARGRGLGHFDVWGQGTTVTVSS
VL: DIQMTQSPSSLSASVGDRVTITCRASKSISKFLAWFQQKPGKTNKLLIYSGSTLQSGVPSRFSGSGSGTDFTLTISSLQPEDFATYYCQQHNEYPWTFGGGTKVEIKR
notes: human IgG1 (L234A, L235A) / kappa
B2: hAb-23 (antibody, human IgG1, kappa, L234A L235A, V domains shown)
VH: QVQLVQSGAEVKKPGSSVKVSCKASGGTFSSYAISWVRQAPGQGLEWMGGIIPIFGTANYAQKFQGRVTITADESTSTAYMELSSLRSEDTAVYYCARELVSYYYGMDVWGQGTMVTVSS
VL: not shown
notes: from a human natural phage library; human IgG1 (L234A, L235A) / kappa; also called fully human antibody hAb-23
B3: hAb18-8 (antibody, human IgG1, kappa, L234A L235A, V domains shown)
VH: EVQLVQSGAEVKKPGASVKVSCKASGYTFTDYAMHWVRQAPGQRLEWMGVISTYSGTTNYNQNFKGRVTITVDKSASTAYMELSSLRSEDTAVYYCARSGPLDYWGQGTTVTVSS
VL: ENVLTQSPDFQSVTPKEKVTITCRATSSVSSSYLHWYQQKPDQSPKLWIYSTSQLASGVPSRFSGSGSGTDYTLTINSLEAEDAATYYCQQYSGYPLTFGQGTKLEIKR
notes: as for B1

Each binder was assayed against human KLB & human FGFR3c on L6 cells (human, UniProt Q86Z14 1-1044; P22607 23-806) (assay: cell-based or functional assay).
human KLB & human FGFR3c on L6 cells, sequence (P22607 23-806, chain 2 of 2, one chain of several): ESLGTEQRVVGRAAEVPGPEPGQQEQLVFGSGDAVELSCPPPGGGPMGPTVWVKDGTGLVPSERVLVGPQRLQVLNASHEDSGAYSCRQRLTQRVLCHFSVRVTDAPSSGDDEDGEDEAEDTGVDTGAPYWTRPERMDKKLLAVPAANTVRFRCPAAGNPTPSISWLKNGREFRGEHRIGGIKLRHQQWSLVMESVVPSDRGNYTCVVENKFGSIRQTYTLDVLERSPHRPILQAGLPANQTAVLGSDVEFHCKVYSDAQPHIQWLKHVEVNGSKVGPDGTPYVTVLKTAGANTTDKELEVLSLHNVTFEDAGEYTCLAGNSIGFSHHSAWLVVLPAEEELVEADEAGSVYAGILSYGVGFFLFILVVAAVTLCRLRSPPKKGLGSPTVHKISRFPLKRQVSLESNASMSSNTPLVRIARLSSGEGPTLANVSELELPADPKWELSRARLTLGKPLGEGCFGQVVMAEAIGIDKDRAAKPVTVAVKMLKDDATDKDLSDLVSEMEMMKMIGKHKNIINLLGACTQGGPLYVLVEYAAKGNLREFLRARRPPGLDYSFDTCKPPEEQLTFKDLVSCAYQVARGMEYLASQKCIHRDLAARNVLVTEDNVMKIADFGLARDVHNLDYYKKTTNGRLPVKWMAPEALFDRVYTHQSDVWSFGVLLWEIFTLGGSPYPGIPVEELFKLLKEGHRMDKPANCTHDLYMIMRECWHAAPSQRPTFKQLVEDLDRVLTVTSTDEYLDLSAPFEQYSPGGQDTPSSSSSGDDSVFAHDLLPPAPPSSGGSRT
For B1, the “Activation fold, pERK/total ERK in L6-hKLB&hFGFR3c cells” value was 4.95 fold.
B2 was tested, and the “Activation fold, pERK/total ERK in L6-hKLB&hFGFR3c cells” value was 1.08 fold.
For B3, the “Activation fold, pERK/total ERK in L6-hKLB&hFGFR3c cells” value was 1.41 fold.

These binders were tested against human KLB & human FGFR4 on L6 cells (human, UniProt Q86Z14 1-1044; P22455 22-802) (assay: cell-based or functional assay).
human KLB & human FGFR4 on L6 cells, sequence (P22455 22-802, chain 2 of 2, one chain of several): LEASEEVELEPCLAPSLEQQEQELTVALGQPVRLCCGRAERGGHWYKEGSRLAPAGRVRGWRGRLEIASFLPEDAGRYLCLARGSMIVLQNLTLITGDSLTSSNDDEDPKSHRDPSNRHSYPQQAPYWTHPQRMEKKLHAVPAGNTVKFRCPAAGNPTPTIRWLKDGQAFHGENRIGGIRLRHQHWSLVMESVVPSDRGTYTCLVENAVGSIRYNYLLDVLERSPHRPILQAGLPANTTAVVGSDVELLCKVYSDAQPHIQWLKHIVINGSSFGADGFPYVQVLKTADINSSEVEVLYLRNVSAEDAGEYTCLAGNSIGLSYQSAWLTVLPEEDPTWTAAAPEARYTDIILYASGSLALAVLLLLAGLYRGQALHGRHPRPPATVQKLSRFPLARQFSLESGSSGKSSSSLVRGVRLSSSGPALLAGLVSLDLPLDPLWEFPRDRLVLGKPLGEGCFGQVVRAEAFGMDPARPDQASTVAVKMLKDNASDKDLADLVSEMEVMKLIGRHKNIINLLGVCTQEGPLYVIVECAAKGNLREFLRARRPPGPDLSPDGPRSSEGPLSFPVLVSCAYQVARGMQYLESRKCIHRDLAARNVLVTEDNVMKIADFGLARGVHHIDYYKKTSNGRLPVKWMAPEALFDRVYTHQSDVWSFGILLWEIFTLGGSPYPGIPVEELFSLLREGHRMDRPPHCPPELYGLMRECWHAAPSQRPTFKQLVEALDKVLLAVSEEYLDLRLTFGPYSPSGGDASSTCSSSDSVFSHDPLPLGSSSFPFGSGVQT
With B1 the “Activation fold, pERK/total ERK in L6-hKLB&hFGFR4 cells” value was 1.54 fold.
B2 was tested, and the “Activation fold, pERK/total ERK in L6-hKLB&hFGFR4 cells” value was 0.91 fold.
B3 was tested, and the “Activation fold, pERK/total ERK in L6-hKLB&hFGFR4 cells” value was 0.98 fold.

Each binder was assayed against T1, human KLB on CHOK1-hKLB cells (assay: flow cytometry on CHOK1-hKLB cells).
Method: The binding ability of the antibodies for CHOK1 cell strains CHOK1-hKLB and CHOK1-cynoKLB overexpressing human KLB and monkey KLB (see Example 1 for specific preparation procedure), respectively, was detected by flow cytometry. The specific procedure was as follows: the above cells were cultured in 10% FBS-containing IMDM medium and incubated in an incubator at 37° C. and 5% CO₂ for 2 days. The cells were then added to a cell plate at 1×10⁵ cells per well, centrifuged at 300 g for 5 min, and then washed once with 1% BSA. The antibody diluted in gradient was added to the cell plate at 100 μL per well, and the mixture was incubated at 4° C. for 1 h and washed once with 1% BSA. The diluted (1:400) APC-goat anti-human IgG Fc fluorescent secondary antibody was added at 100 μL per well, and the resulting mixture was incubated at 4° C. for 1 h. The plate was washed three times with 1% BSA, PBS was added at 100 μL per well, and the plate was read.
B1 was tested, and the EC50 was 0.44 nM.
Binder B2 has an EC50 of 0.39 nM.
B3 was tested, and the EC50 was 1.93 nM.

These binders were tested against T2, hKLB (R&D, Cat. # 5889-KB) (assay: SPR (Biacore T200), antibody captured on Protein A chip, hKLB as analyte, 1:1 model).
From the text: A Protein A biosensor chip (Cat. # 29127556, GE) was allowed to affinity capture an antibody, and then a certain concentration of hKLB (R&D, Cat. # 5889-KB) was allowed to flow through the surface of the chip. The reaction signals were detected in real time using a Biacore T200 instrument to obtain an association and dissociation curve. After dissociation was complete in each experiment cycle, the biosensor chip was washed with Glycine1.5 (Cat. # BR-1003-54, GE) for regeneration. The data were fitted using a 1:1 model to obtain antibody affinity data, and the specific experimental results are shown in Table 10 below.
B1 showed a Kd of 2.1 nM, a koff of 0.000626 s⁻¹ and a kon of 298000 M⁻¹ s⁻¹.
With B2 the Kd was 0.199 nM, the koff was 4.91e-05 s⁻¹ and the kon was 247000 M⁻¹ s⁻¹.
B3 was tested, and the Kd was 0.977 nM, the koff was 0.000103 s⁻¹ and the kon was 106000 M⁻¹ s⁻¹.
